Reference: publication PMC6747709, “Homology Modeling-Based in Silico Affinity Maturation Improves the Affinity of a Nanobody” (International Journal of Molecular Sciences, 2019)

How the values were obtained:
Settings in all cases: both partners purified
[1] = target: T1, CD47 extracellular domain (biotin (enzymatically biotinylated; stated for the SPR experiment)); experiment: ELISA; indirect ELISA; CD47^ext coated at 30 ug/mL overnight at 4 °C; serially diluted VHH, 2.5 h at 37 °C; detected with HRP-conjugated anti-His tag mAb, OD450
T1 construct: CD47 extracellular domain; bought protein Abcam ab174029; source: bought: Abcam (ab174029), enzymatically biotinylated

[2] = target: T1, CD47 extracellular domain; experiment: ELISA; indirect ELISA after heat treatment of the VHH (10 min at six temperatures, 4 to 70 °C); CD47^ext coated at 30 ug/mL; VHH at 30 ug/mL, 2 h at 37 °C; detected with HRP-conjugated anti-His tag mAb, OD450
[3] = target: T1, CD47 extracellular domain; experiment: SPR; Biacore 3000, 25 °C; ~350 RU enzymatically biotinylated CD47^ext immobilised on a CM5 chip, VHHs flowed over at 40 uL/min in 10 mM HEPES, 150 mM NaCl, 3 mM EDTA, 0.05% P20, pH 7.4; 1:1 Langmuir model; duplicates

T1 sequence (chain, as listed by the source): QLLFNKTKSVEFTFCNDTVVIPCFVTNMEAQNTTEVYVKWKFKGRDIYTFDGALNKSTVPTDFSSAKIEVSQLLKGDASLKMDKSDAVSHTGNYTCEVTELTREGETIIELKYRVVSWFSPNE

Binder	ELISA signal relative to M0 at 5.625 ug/mL [1]	ELISA signal relative to M0 at 360 ug/mL [1]	OD450 at 70 °C relative to 4 °C [2]	Kd [3]
Nb02 quadruple mutant M7 (G107W, T108H, S109V, F110A) (VHH, also called best mutant; lead variant; source: E. coli TransB (DE3), purified (Ni2+ IMAC, HisTrap HP); not shown: His6, C-terminal, kept) VHH: EVQLQASGGGLVQAGGSLRLSCAASGFTNERSQNMGWFRQAPGKEREGVACISSRVVECWYADSVKGRFTISRDNAKNTVYLQMNSLKPEDTAVYYCAAPRAITWHVAVGEHMCDYWGQGTQVTVSS	158%	~120%	~45%	3.2 ± 1 nM
Nb02 mutant M4 (VHH, the text says only that M4 includes F110A; One of five triple and two quadruple mutants combined from the round 1 mutations; source: E. coli TransB (DE3), purified (Ni2+ IMAC, HisTrap HP)) VHH: EVQLQASGGGLVQAGGSLRLSCAASGFTNERSQNMGWFRQAPGKEREGVACIQSRVVECWYADSVKGRFTISRDNAKNTVYLQMNSLKPEDTAVYYCAAPRAITGHSAVGEHMCDYWGQGTQVTVSS	–	–	–	57 ± 7.3 nM
Nb02 mutant M3 (VHH, One of five triple and two quadruple mutants combined from the round 1 mutations; source: E. coli TransB (DE3), purified (Ni2+ IMAC, HisTrap HP)) VHH: EVQLQASGGGLVQAGGSLRLSCAASGFTNERSQNMGWFRQAPGKEREGVACIQSRVVECWYADSVKGRFTISRDNAKNTVYLQMNSLKPEDTAVYYCAAPRAITGHVFVGEHMCDYWGQGTQVTVSS	–	–	–	69.5 ± 6.1 nM
Nb02 mutant M2 (VHH, One of five triple and two quadruple mutants combined from the round 1 mutations; source: E. coli TransB (DE3), purified (Ni2+ IMAC, HisTrap HP)) VHH: EVQLQASGGGLVQAGGSLRLSCAASGFTNERSQNMGWFRQAPGKEREGVACIQSRVVECWYADSVKGRFTISRDNAKNTVYLQMNSLKPEDTAVYYCAAPRAITWTVFVGEHMCDYWGQGTQVTVSS	–	–	–	11.4 ± 2.1 nM

Continued by falling Kd [3], values first:

ELISA signal relative to M0 at 5.625 ug/mL [1]	ELISA signal relative to M0 at 360 ug/mL [1]	OD450 at 70 °C relative to 4 °C [2]	Kd [3]	Binder
–	–	–	74.5 ± 5.5 nM	Nb02 mutant M1 (VHH, One of five triple and two quadruple mutants combined from the round 1 mutations (S55Q, G107I, G107W, T108H, S109E, S109V, F110A); source: E. coli TransB (DE3), purified (Ni2+ IMAC, HisTrap HP)) VHH: EVQLQASGGGLVQAGGSLRLSCAASGFTNERSQNMGWFRQAPGKEREGVACIQSRVVECWYADSVKGRFTISRDNAKNTVYLQMNSLKPEDTAVYYCAAPRAITWHSFVGEHMCDYWGQGTQVTVSS
–	–	–	58.2 ± 4.5 nM	Nb02 mutant M6 (VHH, One of five triple and two quadruple mutants combined from the round 1 mutations; source: E. coli TransB (DE3), purified (Ni2+ IMAC, HisTrap HP)) VHH: EVQLQASGGGLVQAGGSLRLSCAASGFTNERSQNMGWFRQAPGKEREGVACIQSRVVECWYADSVKGRFTISRDNAKNTVYLQMNSLKPEDTAVYYCAAPRAITWHVFVGEHMCDYWGQGTQVTVSS
–	–	–	25.3 ± 3.7 nM	Nb02 mutant M5 (VHH, One of five triple and two quadruple mutants combined from the round 1 mutations; source: E. coli TransB (DE3), purified (Ni2+ IMAC, HisTrap HP)) VHH: EVQLQASGGGLVQAGGSLRLSCAASGFTNERSQNMGWFRQAPGKEREGVACISSRVVECWYADSVKGRFTISRDNAKNTVYLQMNSLKPEDTAVYYCAAPRAITWHVFVGEHMCDYWGQGTQVTVSS
